Sequences and labels used below:
B1: SUN domain-containing protein 2 (Homo sapiens), Q9UH99 (parent)
chain: MSRRSQRLTRYSQGDDDGSSSSGGSSVAGSQSTLFKDSPLRTLKRKSSNMKRLSPAPQLGPSSDAHTSYYSESLVHESWFPPRSSLEELHGDANWGEDLRVRRRRGTGGSESSRASGLVGRKATEDFLGSSSGYSSEDDYVGYSDVDQQSSSSRLRSAVSRAGSLLWMVATSPGRLFRLLYWWAGTTWYRLTTAASLLDVFVLTRRFSSLKTFLWFLLPLLLLTCLTYGAWYFYPYGLQTFHPALVSWWAAKDSRRPDEGWEARDSSPHFQAEQRVMSRVHSLERRLEALAAEFSSNWQKEAMRLERLELRQGAPGQGGGGGLSHEDTLALLEGLVSRREAALKEDFRRETAARIQEELSALRAEHQQDSEDLFKKIVRASQESEARIQQLKSEWQSMTQESFQESSVKELRRLEDQLAGLQQELAALALKQSSVAEEVGLLPQQIQAVRDDVESQFPAWISQFLARGGGGRVGLLQREEMQAQLRELESKILTHVAEMQGKSAREAAASLSLTLQKEGVIGVTEEQVHHIVKQALQRYSEDRIGLADYALESGGASVISTRCSETYETKTALLSLFGIPLWYHSQSPRVILQPDVHPGNCWAFQGPQGFAVVRLSARIRPTAVTLEHVPKALSPNSTISSAPKDFAIFGFDEDLQQEGTLLGKFTYDQDGEPIQTFHFQAPTMATYQVVELRILTNWGHPEYTCIYRFRVHGEPAH

One test covers variants of B1. To be noted: with syne2_human SYNE2, Q8WXH0.
L536D: the “effect of a mutation on the interaction” value is “decreasing interaction strength”.

With D542N, the “effect of a mutation on the interaction” value is listed as “decreasing interaction strength”.

Another test covers variants of B1. To be noted: with syne2_human SYNE2, Q8WXH0. This is another data set of the same source.
As to H628A, the “effect of a mutation on the interaction” value is “disrupting interaction strength”.

With S641E, the “effect of a mutation on the interaction” value is “disrupting interaction strength”.

The values above are taken from IntAct's records for PubMed 22632968.
